{"source": "the nanobody polyreactivity screen of Harvey et al. (2022)"}
{"experiment": "yeast display, Sf9 membrane polyspecificity reagent, FACS + sequencing; frameworks hold sequencing errors", "how_it_was_run": "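A nanobody's polyreactivity label depends on the gate it was sorted from. Yeast display cells were stained with 10% biotinylated, detergent-solubilized Sf9 membrane reagent for 1 hour at 4 °C, enriched on streptavidin microbeads and sorted by FACS. The low and high (top ~1%) gates were set on anti-HA fluorescence for expression and streptavidin fluorescence for reagent binding.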"}
{"sequence": "QVHLVESGRGLVQAGGSLRLSCAASGSIFESYAIGWYRQAPGKERELVAAISGNSDSTYYADSVKGRFTISRDNEKNTVYLQMNSLKPEDTAVYYCAKEGGNGYDYWGQGTQVTVSS", "polyreactivity (PSR sort gate)": "low polyreactivity"}
{"sequence": "QVHLVESGRGLVQAGRSLRLSCAASGLTFDWYDMGCYRQAPGKERELVAAITSVGSTYYADSVKGRFTISRDNAKKTVYLQMNSLKPEDTAVYYCGVEGVIWSFWPYEYWGQGTQVTVSS", "polyreactivity (PSR sort gate)": "high polyreactivity"}
{"sequence": "QVHLVESGVGLVQAGGSLRLSCAASGFIFYYNAMGWYRQAPGKERELVAAISRTGGSTYYADSVKGRFTISRDNAKNTVYLQMNSLKPEDTAVYYCAAVGSPNRRPSRWEGSWGQGTQVTVSS", "polyreactivity (PSR sort gate)": "high polyreactivity"}
{"sequence": "QVHLVESGVGLVQAGGTLRLSCAASGRTFRVYALVWYRQAPGKERELVAAITWNGGSTYYADSVKGRFTISRDNAKNNVYLQMNRLKPEDTAVYYSAAARYAYNIWSGAYDYWGQGTQVTVSS", "polyreactivity (PSR sort gate)": "high polyreactivity"}
{"sequence": "QVHLVESRGRLVQAGGSLRLSCAASGSIFEPNAMGWYRQAPGKEREFVAAISGSGGSTYYADSVKARFTISRDNAKNTVYLQMNSRNPEDTAVYYCATRGKRSYFRTFYYWGQATQVTVSS", "polyreactivity (PSR sort gate)": "high polyreactivity"}
{"sequence": "QVHLVESVGGLFQAGGSLRLSCAPSGYIYVANVKGWYRQAPGKERELVAAINRRTGITYYADSVKGRCTNSRDNAKNTVNLQMNSLKTEDTAVYYCAALAQSTTYTRPYDYWGQGTQVTVSS", "polyreactivity (PSR sort gate)": "low polyreactivity"}
{"sequence": "QVHLVESVGGLVQAGGSLRLSCAASGRIFRYYAMGWYRQAPVKAWELVATISQRGGTYYADSVKGRFTISRDNAKNTVYLQMNSLKPEDTAVYYCAARINTYRSYYPSSRSDYWGQGTQVTVSS", "polyreactivity (PSR sort gate)": "high polyreactivity"}
{"sequence": "QVHLVESWGGLVQAGGSLRLICAASGSTFYANAMGWYRQAPGKERQLVAAITRSRRSTYYADSVKGRFTISRDNAKNTVYLQMNSLKRVDTAVYYFSARRVRDRVRYDYCGQGTQVTVSS", "polyreactivity (PSR sort gate)": "high polyreactivity"}
{"sequence": "QVHLVESWGGLVQAGGSLRLSCAASGSIFYYYAMGWYRLAPGKERELVAAITSGGSTYYADSVKGRFTISRDNAKNTVYLQMNSLKPEDTAVYYCAAVFYAAYLRYVWYSYDYWGQGTQVTVSS", "polyreactivity (PSR sort gate)": "low polyreactivity"}
{"sequence": "QVHLVETGGGLVHAGGSLRLSCASSGNIFSWYAMGWYRQAPGKEREFVAVIRGRGGSTYYADSVKGRFTISRDNAKNNVYLLMKSLKPEDTAVYYCAIRGFVLYFYRSGYGYGYWGQGTQVTVSS", "polyreactivity (PSR sort gate)": "low polyreactivity"}
{"sequence": "QVHLVETGGGLVQEGGSLRLSCAATGSNFGQNAMGWYRQAPGKERELVAAITRRGVATYYADSVKGRFTISRDNAKNTVYLQLISLKPEDTAVYYCAKRYHPNSPYDYWGQGTQVTVSS", "polyreactivity (PSR sort gate)": "low polyreactivity"}
{"sequence": "QVHLVQSGGGLVQAGGSLRLSCAASGRTFYIYAMGCYRQAPGKERELVAAISWRGGSTYYANSVKGRFTISLDHAKYTVYLQMNSLKPEDTAVYYCAAEGAHVKWYRNWWEYDDWGQGTQVTVSS", "polyreactivity (PSR sort gate)": "high polyreactivity"}
{"sequence": "QVHLVVSGGGLVQAGGSLRLSCAASGRTFIRYAMGWYRQAPWKESELVAAITQSGGRTYYADSVKGRFTISRDNAKNTVYLQMNSLIPEDTAVYYCAAIGRYAFYYPRDYWGQGTQVTVSS", "polyreactivity (PSR sort gate)": "high polyreactivity"}
{"sequence": "QVKLQESGGGLVQAGGSLRLSCAASGNISVTGFMGLYRQAPGKERELVASIGIGGTTYYADSVKGRFSISRDNAKNTVYLQMNSLKPEDTAVYYCAGIYLYYAYSYWGQGTQVTVSS", "polyreactivity (PSR sort gate)": "low polyreactivity"}
{"sequence": "QVKLVDSGGGLVQAGGSLRLSCAASGSIFAGYAMGWYRQEPGKVRELVAAINASGGSTYYADSVKGRFTISRDNAKNTVYLQMNSLKPEDTAVYYCNRVYKRYYIGGYDYWGQGTQLTVSS", "polyreactivity (PSR sort gate)": "high polyreactivity"}
{"sequence": "QVKLVESAGGLVQAGGSHRLSCAASARIFRGNTRGWYRQAPGKEREVVARITWNGGTTNYADSVKGRFTISRDYAKNTVSLQMNSLKPVDTAVYYCAKGSLRQITGILSWYYYWRQGTQVTVSS", "polyreactivity (PSR sort gate)": "high polyreactivity"}
{"sequence": "QVKLVESAGGLVQAGGSLRLSCPASGSTFPKYPMGWSRQEPGKERELVAAITWRGGSTYYADSVKGRFTISRDNAKNTVYLQMISLNPEDTAVYYCAAVPYYPSRMDYWGQGTQVTVSS", "polyreactivity (PSR sort gate)": "low polyreactivity"}
{"sequence": "QVKLVESGGCLVQAGGSLRLSCAASGRTIGYYGMGWYRQAPGKARELVAAITGSGGSTYYADSVKGRFTISRDNSKNTVYLQMNILIPEDTAVYYCAATYLSRWTLYDYWGQGTQVTVSS", "polyreactivity (PSR sort gate)": "high polyreactivity"}
{"sequence": "QVKLVESGGGLVMAGGSLRLSCAASGRTFWIYAMGRYRQAPGKERELVAAISQSSSITYYADSVKRRFTFSRDNAKNTVYLQMNSLKPEDTEGYYCNSDVLRYQGSWLEYWGQGTQVTVSS", "polyreactivity (PSR sort gate)": "low polyreactivity"}
{"sequence": "QVKLVESGGGLVQAGCSLRISCAASGITFKNYAMGWYRQAHGKERELVAAIRSIAGRTNYADSVKGRFTISRDYANNTVYLKMNSLKPEDTAVYYFTAANRGQRSDYRGYYYWGQGTQVTVSS", "polyreactivity (PSR sort gate)": "high polyreactivity"}
{"sequence": "QVKLVESGGGLVQAGCSLRLSCAASGRIYGGYTMGRYRPAPGKERELVAAITGSGGRTYFADSVKGRFTISRDNAKNTVYLHMNILTPEDTAVYYCNTVYPYRYYWGHGTQVTVSS", "polyreactivity (PSR sort gate)": "high polyreactivity"}
{"sequence": "QVKLVESGGGLVQAGGRLRLSCDAYGIILVGYDMGWYRPAPGKERELVATISSGSSTYYEDSVKGRFTISRDNAKNTVYLQMNSLKPEDTAVYYCNADHAGPYWRFHDDDYWGQGTKVTVSS", "polyreactivity (PSR sort gate)": "low polyreactivity"}
{"sequence": "QVKLVESGGGLVQAGGSLRLSCAASGFIFGDNAMGWYRQAPGKVREFVAAINSGSRTSYADSVKGRFTISRDNAKNTVYLQMNSLKPEDTAVYYCAAESVSSGDYASRYDYWGQGTQVTVSS", "polyreactivity (PSR sort gate)": "low polyreactivity"}
{"sequence": "QVKLVESGGGLVQAGGSLRLSCAASGFIFLRYGMGWYRQAPGKERELVASIDSTGGSTYADSVKGRFTISRDNAKNTVYLKMNSLKPVDTAVYFCAAAFYIVSERDYCGQGTQVTVSS", "polyreactivity (PSR sort gate)": "low polyreactivity"}
{"sequence": "QVKLVESGGGLVQAGGSLRLSCAASGFTFNRYAMGWYRQAPGKERELVAAISWSGGSTYYADSVKGRFTISRDNAKNTVYLQMNSLKPEDTAVYYCAAATAYYRYRGGYDYWGQGTQVTVSS", "polyreactivity (PSR sort gate)": "high polyreactivity"}
{"sequence": "QVKLVESGGGLVQAGGSLRLSCAASGFTFSYYAMGWYRQAPGKERELVAAISYSGSATYYADSVKVRFTISRDNAKNTVYLQLNSLIPEDTAVYYCNARGATRGLTAYTYDSWGQGTQVTVSS", "polyreactivity (PSR sort gate)": "high polyreactivity"}
{"sequence": "QVKLVESGGGLVQAGGSLRLSCAASGIIFEVYAMGWYRQAPGKERELVAAITLSSGGITYYADSVKGRFTISRDYAKNTVYLQMNSLKPEDTAVYYCAAQHDNFSGPFEYWGQGTQVTVSS", "polyreactivity (PSR sort gate)": "low polyreactivity"}
{"sequence": "QVKLVESGGGLVQAGGSLRLSCAASGITFYINAMGWYRQAPGKERELVAVIDSRGSSTFYADSVKGRFTISRDNAKNTVYLQMNSLKPEDTAVYYCAVEGYPGRYRDPGDLYYYWGQGTQVTLSS", "polyreactivity (PSR sort gate)": "low polyreactivity"}
{"sequence": "QVKLVESGGGLVQAGGSLRLSCAASGRIFDRYAMGWYRQAPGKERELVAAITSRADRTYYADSVKGRFTISRDIAKNTVYLQMNSLKPEDTAVYYCNRRRRHYSYYSTLSYDYWGQGTQVTVSS", "polyreactivity (PSR sort gate)": "high polyreactivity"}
{"sequence": "QVKLVESGGGLVQAGGSLRLSCAASGRIFNWYAMGWYRQAPGKERELVAAITSGGSTNYADSVKGRFTISRDNAKNTVYLQMNSLKPEDTAVYFCNARGRFRGYRYYYWGQGTQVTVSS", "polyreactivity (PSR sort gate)": "high polyreactivity"}
{"sequence": "QVKLVESGGGLVQAGGSLRLSCAASGRIFYYYAMGWYRPAPGKERELVAGITTGGGTNYADSVKGRFTISRDNAKNTVYLQMNSLKPEDTAVYYCATGTEGYSDDYGYWGQGTQVTVSS", "polyreactivity (PSR sort gate)": "low polyreactivity"}
{"sequence": "QVKLVESGGGLVQAGGSLRLSCAASGRISFYYAMGWYRQAPGKERELVATISSSGGSTHYADSVKGRFTISRDNAKNTVYLQMNSLKPEDTAVYYCARDDSERIWLEQSGYWGQGTQVTVSS", "polyreactivity (PSR sort gate)": "low polyreactivity"}
{"sequence": "QVKLVESGGGLVQAGGSLRLSCAASGRTFIYYAMGWYRQAPGKERELVAGITYSVGSTYYADSVKGRFTISRDNAKNTVYLQMNSLKPEVTAVYYCAAKPVGTYSRPHDYWGQGTQVTVSS", "polyreactivity (PSR sort gate)": "low polyreactivity"}
{"sequence": "QVKLVESGGGLVQAGGSLRLSCAASGSIFQGYAMGWYRQAPGKERELVAAISGRGGSTYYADSVKGRFTISRDNAKNTVYLQMNSLKPEDTAVYYCNAPRYYWISFARWPASYYYWGQGTQVTVSS", "polyreactivity (PSR sort gate)": "high polyreactivity"}
{"sequence": "QVKLVESGGGLVQAGGSLRLSCAASGSIFTYTIGWYRQAPGKESELVAVISRSGGRTYYADSVKGRFTISRDNAKNTVYLQMNSLKPEDTAVYYCAAEYYVDYYRTSRSFTRWRYEYWGQGTQVTVSS", "polyreactivity (PSR sort gate)": "high polyreactivity"}
{"sequence": "QVKLVESGGGLVQAGGSLRLSCAASGSSFTNYAMGWYRQEPRKERELVAAITSVGSTYYADSVKGRFTISRDNAKNTVYLQMNSLKPEDTAVYYCNVVYRDQYNYWGQGTQVTVSS", "polyreactivity (PSR sort gate)": "low polyreactivity"}
{"sequence": "QVKLVESGGGLVQAGGSLRLSCAASGSTFHLNAMGWYRPAPGKDRELVAANSWDGSSTSYADSVKGRFTISRDNAKNTVYLQMNSLKPEDTAVYFCAADDTLDRVPTTFIDGSPGYGYWGQGTQVTVSS", "polyreactivity (PSR sort gate)": "low polyreactivity"}
{"sequence": "QVKLVESGGGLVQAGGSLRLSCAASGSTFSSYAMGWYRQAPGKERELVAAISSSGGTSTYADSVKGRFTISRDNAKNTVYLQMNSLKPEDTAVYYCAARQDRLLRDYRHDYWGQGTQVTVSS", "polyreactivity (PSR sort gate)": "high polyreactivity"}
{"sequence": "QVKLVESGGGLVQAGGSLRLSCAASGSTINLYDMGSYIQAPGKERELVADISRGGSTNYADSVKGRFTITRDNAKNTVYLQMNSLIPEDTAVYYCAAFYFTYDFWTYSFAEYDYWGQGTQVTVSS", "polyreactivity (PSR sort gate)": "high polyreactivity"}
{"sequence": "QVKLVESGGGLVQAGGSLRLSCAASGSTLRYYGMGWYRQAPGKERELVAAISSGGITNYADSVKGRFTISRDNAKNTVYLQMNSLKPEDTAVYYCAAYYTYTWFGYWGQGTQVTVSS", "polyreactivity (PSR sort gate)": "low polyreactivity"}
{"sequence": "QVKLVESGGGLVQAGGSLRLSCAASGSTLYQYTMGWYRQAPGKERELVAGISRRGGSTYYAYSVKGRFTISRDNAKNTVYLQMNSLKPEDTAVYYCAKRPHYIAWYGYNGDYWGQGTQVTVSS", "polyreactivity (PSR sort gate)": "high polyreactivity"}
{"sequence": "QVKLVESGGGLVQAGGSLRLSCAASGSTMSVNAMGWYRQAPGKERELVAAIDFDGGDTYYADSVKGRFTISRDNAKNTVYFQMNSLKPEDTAVYYCAADIGGQYDYLADDYWGQGTQVTVSS", "polyreactivity (PSR sort gate)": "low polyreactivity"}
{"sequence": "QVKLVESGGGLVQAGGSLRLSCADSGFTFSSNGMCWYRPAPGKETELVAAITRRGGSTYYADSVKGRFTISRDNAKNTVYLQMNSLKPEDTAVYYCAKQLWDPKYDYWGQGTQVTVSS", "polyreactivity (PSR sort gate)": "high polyreactivity"}
